# From paper PMC4755594, “Structure of a Bacterial Virus DNA-Injection Protein Complex Reveals a Decameric Assembly with a Constricted Molecular Channel” (PLoS ONE, 2016)
# B1: bacteriophage Sf6 DNA-injection protein gp12 (natural protein, UniProt Q716G3 1-431, looked up)
# chain: MATWQGSNGGLLAGIGGVNSNAPSVNDIGNTLQLIRQNNDIERSGANNVGLTALQGLSGIAGVFQQEKQARRQKEFQQAYANAYASGDRGALRQLATQYPDQIESVRKGMGFIDEDQRNSIGTLAAGARLAASSPEAMQSWLQNNANELARVGVDPNNVAQMYQQNPSGFGEFVDHLGMAALGPIDYFNVQDKMAGREIDRGRLAETIRSNKAGEALTVRGQDIQIRGQNISAQNAALSREIQRAELQEKALDRQIARESNQLKLEELKQKQADVRQKADIARADRQAAAQGAVDTFSTALDSLNEIEQSPGLSKAVGIRSAFPTVPGSDAANFEARLDTFKAQTFLPMVQSLKGMGALSDAEGKKLSDAVGALSPKMSEKAFRDSIGKIRNQLESKLSTVKKQFDYQEPVQNTPVQQPTTGSNFSSLWGD
# notes: gp12 (product of gene 12) of bacteriophage Sf6, 431 residues, 46.5 kDa; ortholog of phage P22 gp20; The same preparation gave a monomer peak and a decamer peak on SEC; the assembled form has 10 copies of the chain; also called Sf6 gp12; gp12 monomer
# Molecular target: the molecule itself
# Assay: SEC; refolded gp12 after Ni-NTA on Hiload Superdex 200; decamer peak at 54.6 ml, monomer peak at 73.6 ml; pooled decamer fractions run again
protein,measurement,value
B1,stoichiometry N,10
